Article PMC10615762

Target: prefusion-stabilized SARS-CoV-2 spike protein (S-clamp) (SARS-CoV-2)
Assay: SEC

Work on “prefusion-stabilized SARS-CoV-2 spike protein (S-clamp)” yielded a stoichiometry N of 3.
